Assay results reported in the nanobody polyreactivity screen of Harvey et al. (2022).

Assay: yeast display, Sf9 membrane polyspecificity reagent, FACS + sequencing; frameworks hold sequencing errors
Procedure, shortened: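 Galactose induction of a Saccharomyces cerevisiae BJ5465 synthetic nanobody display library ran 36–48 hours. The cells were then stained for 1 hour at 4 °C with 10% biotinylated, detergent-solubilized Sf9 membrane reagent, pulled down on streptavidin microbeads and FACS-sorted into low and high (top ~1%) gates on expression and reagent-binding fluorescence. Labels for polyreactivity follow the gate of origin.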

Row | Sequence | polyreactivity (PSR sort gate)
1 | QVQLVESGGGLVQAGGSLRLSCAASGRTFVSNTMGWYRQAPGKERELVAAINYSVASTNYADSVKGRFTISRDNAKNTVYLQMNSLKPEDTAVYYCNRASAGWGQGTQVTVSS | low polyreactivity
2 | QVQLVESGGGLVQAGGSLRLSCAASGRTFVSYAMGWYRQAPGKETELVAAIDSSGTSTYYADSVKGRFTISRDNAKNTVYLQMNSLKPEDTAVYYCAKAWPDHWYSRYDYWGQGTQVTVSS | low polyreactivity
3 | QVQLVESGGGLVQAGGSLRLSCAASGRTFVSYVMGWYRQAPGKERELVAAIRRRGGRTYYADSVKGRFTISRDNAKNTVYLQMNSLKPEDTAVYYCAAAQPGTNAYRVGSWGQGTQVTVSS | high polyreactivity
4 | QVQLVESGGGLVQAGGSLRLSCAASGRTFVTNAMGWYRQAPGKERELVAAISSNGGSTYYADSVKGRFTISRDNAKNTVYLQMNSLKPEDTAVYYCNAEGQPLYVSWHDHRYIYGFDYWGQGTQVTVSS | low polyreactivity
5 | QVQLVESGGGLVQAGGSLRLSCAASGRTFVTNAMGWYRQAPGKERELVAAISSSGGSTYYADSVKGRFTISRDNAKNTVYLQMNSLKPEDTAVYYCAVGGQTKGQYDYWGQVTQVTVSS | low polyreactivity
6 | QVQLVESGGGLVQAGGSLRLSCAASGRTFVTNAMGWYRQAPGKERELVAAISYSGGSTTYADSVKGRFTISRDNAKNTVYLQMNSLKPEDTAVYYCNAQEDLVPKLRYYPPSDYWGQGTQVTVSS | low polyreactivity
7 | QVQLVESGGGLVQAGGSLRLSCAASGRTFVTYAMGWYRPAPGKERELVAAITGSGGRTYYADSVKGRFTISRDNAKLTVYLQMNRLKPEDTAVYYCAKDHPSGRQYDYWGQGTQVTVSS | high polyreactivity
8 | QVQLVESGGGLVQAGGSLRLSCAASGRTFVTYAMGWYRQAPGKERELVAAISASGGSTYYADSVKGRFTISRDNAKNTVYLQMNSLKTEDTAVYYCAKTYFLATPYGYWGQGTQVTVSS | low polyreactivity
9 | QVQLVESGGGLVQAGGSLRLSCAASGRTFVVNAMGWYRQAPGKERELVAAIYADSVKGRFTISRDNAKNTVYLQMNSLKPEDTAVYYCAASGGTWVYYRPEYDYWGQGTQVTVSS | low polyreactivity
10 | QVQLVESGGGLVQAGGSLRLSCAASGRTFVVNDMGWYRQAPGNDRELVAAINYNAGSTFYADSVKGRFTISRDNAKKTVYLQMNSLKPEATAVYYCATDVYGYVEYDYWGQGTQVTVSS | low polyreactivity
11 | QVQLVESGGGLVQAGGSLRLSCAASGRTFVVYAMGWYRQAPGKERELVASISSIGDITNYADSVKGRFTISRDNAKNTVYLQMNSLKPEYTAVYYCTAPIGGSYNTRRAAEYDYWGQGTQVTVSS | low polyreactivity
12 | QVQLVESGGGLVQAGGSLRLSCAASGRTFVVYAMGWYRQAPGKERELVAVISFTGDSTFYADSVKGRFTISRDNAKNTVYLQMNSLKPEDTAVYYCAADFRRVFSKYSYYLYFDFDYWGQGSQVTVSS | low polyreactivity
13 | QVQLVESGGGLVQAGGSLRLSCAASGRTFVYNAMGWYRQAPGKERELVAAIDWSGGSTYYADSVKGRFTISRDNAKNTVYLQMNSLKPEDTAVYYCAADYYYPSQMDYWGQGTQVTVSS | low polyreactivity
14 | QVQLVESGGGLVQAGGSLRLSCAASGRTFVYNAMGWYRQAPGKERELVAAISSDGASTYYADSVKGRFTISRDNAKNTVYLQMNSLKPEDTAVYYCAADLLVSWWLDYDYWGQGTQVTVSS | low polyreactivity
15 | QVQLVESGGGLVQAGGSLRLSCAASGRTFVYNAMGWYRQAPGKERELVAAISSGGGTNYADSVKGRFTISRDNAKNTVYLQMNSLKPEDTAVYYCAAGFDGSRHPGFDSWVQGTQVTVSS | low polyreactivity
16 | QVQLVESGGGLVQAGGSLRLSCAASGRTFVYNAMGWYRQAPGKERELVAAISSSGGSTRYADSVKGRFTISRDNAMNTVYLQMNSLKPEDTAVYYCATRTKAYLYTYYYWGQGTQVTVSS | high polyreactivity
17 | QVQLVESGGGLVQAGGSLRLSCAASGRTFVYYAMGWYRQAPGKEREFVAAISRSGGRTSYADSVKGRFTISRDNAKNTVYLQMNSLKPEDTAVYYCAAEKRTQPTSREYYWGQGTQVTVSS | high polyreactivity
18 | QVQLVESGGGLVQAGGSLRLSCAASGRTFVYYAMGWYRQAPGKERELVAAISRSGSTYYADSVKGRFTISRDNAKNTVYLQMNSLKPEDTAVYYCAARSVYTGRPYYYWGQGTQVTVSS | high polyreactivity
19 | QVQLVESGGGLVQAGGSLRLSCAASGRTFVYYAMGWYRQAPGKERELVAAITFSGGSTYYADSVKGRFTISRDNAKNTVYLQMNSLKPEDTAVYYCAAQYRYSYPLGDYWGQGTQVTVSS | low polyreactivity
20 | QVQLVESGGGLVQAGGSLRLSCAASGRTFWANTMGWYRQAPGKEREFVAAISGRDVSTYYADSVKGRFTISRDNAMNTVYLQMNSLKPEDTAVYYCAAGNLYYAEYDYWGQGTQVTVSS | low polyreactivity
21 | QVQLVESGGGLVQAGGSLRLSCAASGRTFWDYAMGWYRQAPGKERELVAAITGGDSTYADSVKGRFTISRDNAKNTVYLQMNSLKPEDTAVYYCNADSTWDPYVRWALLYEYWGQGTQVTVSS | low polyreactivity

Row | Sequence | polyreactivity (PSR sort gate)
22 | QVQLVESGGGLVQAGGSLRLSCAASGRTFWFNAMGWYRQAPGKEREFVAAISWRGGSTYYADSVKGRFTISRDNAKNTVYLQMNSLKPEDTAVYYCAVDGEYYSDVYLYYRWDDYWGQGTQVTVSS | low polyreactivity
23 | QVQLVESGGGLVQAGGSLRLSCAASGRTFWFYGMGWYRQAPGKEREFVARISASGGSTYYADSVKGRYTISRDNAKNTVYLQMNSLKPEDTAVYYCARDTPWRYYYWGQGTQVTVSS | high polyreactivity
24 | QVQLVESGGGLVQAGGSLRLSCAASGRTFWGNAMGWYRQAPGKDRELVAAITSGGSTYYADSVKGRFTISRDNAKNTVYLQMNSLKPEDTAVYYCATRRIYKWYRYYYWGQGTQVTVSS | high polyreactivity
25 | QVQLVESGGGLVQAGGSLRLSCAASGRTFWGYVKGWYRQAPGKERELVAAITSSTGRTYYADSVKGRFTISRDNAKNTVYLQMNSLKPEDTAVYYCAAGYNGYGLQYYYWGQGTQVTVSS | high polyreactivity
26 | QVQLVESGGGLVQAGGSLRLSCAASGRTFWKNTMGWYSQAPGKERELVAVISSGGVSTSYADSVTGRFTISRDKATNTVYLHMNSLKPEDTAVYYCAADGYYIGPYDYWGQGTQVTVSS | low polyreactivity
27 | QVQLVESGGGLVQAGGSLRLSCAASGRTFWKYAMGWYRQAPGKERELVAAITASGARTYYADSVKGRFTISRDNAKNTVYLQMNSLKPEDTAVYYCNAGSVSDRQMDYWGQGTEVTVSS | low polyreactivity
28 | QVQLVESGGGLVQAGGSLRLSCAASGRTFWKYAMGWYRQAPGKERELVAAITSSGGSTYYADSVKGRFTISRDNAKNTVYLQMNSLKPEDTAVYYCAAPGWGLGYNYWGQGTQVTVSS | low polyreactivity
29 | QVQLVESGGGLVQAGGSLRLSCAASGRTFWKYARGWYRQAPGKERELVAAISSSGGNTYYADSVKGRFTISRDNAKNTVYLQMNSLKPEDTAVYYCAARLPRGAYYYWGQGTQVTVSS | high polyreactivity
30 | QVQLVESGGGLVQAGGSLRLSCAASGRTFWKYVMGWYRQAPGKERELVAVISRPAGSTYYADSVKGRFTISRDNAKNTVYLQMNSLKPEDTAVYYCAKRPKNKPVLGDYDHWGQGTQVTVSS | low polyreactivity
31 | QVQLVESGGGLVQAGGSLRLSCAASGRTFWLYAMGWYRQAPGKERELVARITRRDGSTNYADSVKGRFTISRDNAKNTVYLQMNSLKPEDTAVYYCAAGRFRYPPGAYDYWGQGIQVTVSS | high polyreactivity
32 | QVQLVESGGGLVQAGGSLRLSCAASGRTFWMNAMGWYRQATGKERELVATISSSSGSTTYADSVKGRFTISRDNAKNTVYLQMNSLKPEDTAVYYCNVDDPFYSGVVEFDYWGQGTQVTVSS | low polyreactivity
33 | QVQLVESGGGLVQAGGSLRLSCAASGRTFWNYAMGWYRQAPGKERELVAVIRFSDGSTYYADSVKGRFTISRDNAKNTVYLQMNSLKPEDTAVYYCADIGPRRWGSGFDYWGQGTQVTVSS | low polyreactivity
34 | QVQLVESGGGLVQAGGSLRLSCAASGRTFWRNDMGWYRQAPGKERELVARISWSGGSTYYADSVKGRFTISRDNAKNTVYLQMNSLKPEDTAVYYCAKYYPGRSAFSDGNYWGQGTQVTVSS | low polyreactivity
35 | QVQLVESGGGLVQAGGSLRLSCAASGRTFWRYAMGWYRQAPGKERELVARISSGGSTYYADSVKGRFTISRDNAKNTVYLQMNSLKPEDTAVYYCAVLSRHRRVPWYRYNYWGQGTQVTVSS | low polyreactivity
36 | QVQLVESGGGLVQAGGSLRLSCAASGRTFWTNAMGWYRQAPGKERELVAAISYRAGSTYYADSVKGRFTISRDNAKNTVYLQMNSLKPEDTAVYYCATRAVYYYAGFDYWGQGTQVTVSS | high polyreactivity
37 | QVQLVESGGGLVQAGGSLRLSCAASGRTFWVYAMGWYRQAPGKERELVAAIRRGGITNYADSVKGRFTISRDNAKNTVYLQMNSLKPEDTAVYYCAALGLWFLQFDYWGQGTQVTVSS | low polyreactivity
38 | QVQLVESGGGLVQAGGSLRLSCAASGRTFWWNAMGWYRQAPGKERELVASISSGGSTNYADSVKGRFTISRDNAKKTVYLQMNSLKPEDTAVYYCARGYRWRGTVSRWSRYYQAHDYWGQGTQVTVSS | low polyreactivity
39 | QVQLVESGGGLVQAGGSLRLSCAASGRTFWYNALGWYRQAPGKERELVAAISWSGGTTYYADSVKGRFTISRDNAKNTVYLQMNSLKPEDTAVYYCNAKYRGLAKYDYWGQGTQVTVSS | high polyreactivity
40 | QVQLVESGGGLVQAGGSLRLSCAASGRTFWYNAMGWYRQAPGKERELVAAISSTGGRTYYADSVKGRFTISRDNAKNTVYLQMNSLKPEDTAVYYCAARQLSSHYDYWGQGTQVTVSS | low polyreactivity
41 | QVQLVESGGGLVQAGGSLRLSCAASGRTFWYNTMGWYRQAPGKERELVAAISTGGSTNYADSVKGRFTISRDNAKNTVYLQMNSLIPEDTAVYYCAALIYYWSGRPRFDQARDYDYWGQGTQVTVSS | low polyreactivity
